# According to the supplement of paper PMC12042874:
# ± gives the uncertainty stated by the source.
# Assay: amyloid nucleation score (Sup35N fusion, yeast selection) (log enrichment); library NNK2; higher = more nucleation; inactive = no reads after selection
# Method in brief: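 Peptides of 20 random codons, each fused to Sup35N, were expressed in psi-negative yeast. Cells were induced with 100 μM copper sulfate for 24 hours and grown 7 days at 30°C on medium lacking adenine and uracil, and plasmid inserts before and after selection were Illumina-sequenced. Nucleation scores are DiMSum log enrichments of output over input reads, centred on the mode score of non-aggregating sequences, and sequences under 100 input reads were excluded.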
row,Substance,amyloid nucleation score
1,PRKLLSLKPNSTAAGKCATL,2.89 ± 0.079
2,TLSKVFRVRPGSMTTHCYIV,inactive
3,SVVVCWGKFLSGVGAWLFHS,inactive
4,VNECSFYIIPQTAQWCLVV,0.086 ± 0.5
5,HLRIGLIN,-0.467 ± 0.43
6,FMLRTAQSHISSTVTSVKQA,0.064 ± 0.4
7,GHSCLMVNNACSLDGHEESV,1.16 ± 0.39
8,ECSHQIL,-0.179 ± 0.63
9,YFVGWCIYEVNAYISVPVVF,inactive
10,VIYLHVYGCVNLVSVLVHSL,1.87 ± 0.12
11,KIWHLSQYCAVFSLVFKGLN,2.41 ± 0.15
12,SYFGSAHKVAEAHL,0.377 ± 0.45
13,NWFHVRTDCRRWGGRKVYYN,-0.883 ± 1.1
14,WTLLNCRGSEVKIGRCTKMG,inactive
15,CGNSHMYMNAGDFT,-0.293 ± 0.79
16,MVLLLQASSI,-0.354 ± 0.54
17,EYRYCMTHYYFLRCKLFNIF,-1.06 ± 0.63
18,TVSSIKFVVYSGLRWYELVY,2.27 ± 0.1
19,VFDGRYVESILSFF,3.96 ± 0.1
20,IYLCTDSLSYRSFVRGN,1.18 ± 0.17
21,VAFIFRSSWKSIPKTPKMYS,inactive
22,FTYRPISRNM,4.99 ± 0.076
23,WSVWVRDSGSRMS,1.22 ± 0.13
24,DSLINFRLKVPTMLCMFCWI,0.401 ± 0.62
25,FNFVMLYPTPAGSAKFVGCI,2.85 ± 0.19

row,Substance,amyloid nucleation score
1,WFISPKDKGRASIHLNEYRW,3.97 ± 0.045
2,NKYYLSNLMTCLAQKLSSSG,0.053 ± 1.1
3,NVLRRFNCWRYESGFSNFVN,-1.38 ± 0.36
4,VFILWFTVSATIKKESFGNN,-2.34 ± 1.1
5,KDLGA,3.08 ± 0.13
6,CLSDNC,-0.13 ± 0.74
7,YGPICEYFQGCEALSWWSTC,0.39 ± 0.2
8,VDLRQCENLHRPWRFRRSGK,1.4 ± 0.2
9,DDCCSVNAMHSANCMMVVR,0.09 ± 1
10,NSKGN,0.112 ± 1.1
11,YEGLF,inactive
12,NRDVRCGVRPQHVCFQ,inactive
13,GNTGCGVRACSGVCGKMDLV,0.8 ± 0.27
14,RHRCSI,-0.059 ± 0.39
15,GFMFVFWKFKHGLMGPCSRD,0.684 ± 0.23
16,LGVMRIVHVGLWSAR,-0.249 ± 0.55
17,TYYFVVQFI,8.284 ± 0.036
18,FQNGQDGYGESLV,-0.898 ± 1.1
19,DSRIGYTSYQRFTMKSNVLC,0.024 ± 0.44
20,GFTLEAKDWSTG,0.778 ± 0.43
21,FHLRWRFSSSSNNITRRRCR,0.115 ± 1
22,LLLGTSVDVFL,0.07 ± 0.74
23,PQAVLKGTQGHNLTKNLTWA,-0.774 ± 0.49
24,VNIWAVNICC,7.8 ± 0.048
25,IFPGILH,-1.83 ± 0.63

row,Substance,amyloid nucleation score
1,AVIDIIKRTSCTCDESCCIR,0.415 ± 0.31
2,DYSGYHFMEQVP,-0.363 ± 0.33
3,GINRKDKMSKCTDLVVFCLG,-0.076 ± 0.33
4,KSQRKVIGTLLKVYWPWGCM,0.654 ± 0.25
5,MYSVMLRTSYCTLARYMVLW,1.08 ± 0.11
6,TETAL,-1.05 ± 0.61
7,NCFRVFNSFSIFGAFRTMDR,5.22 ± 0.064
8,NDIMYSVSSYCWWSFRSSVF,2.06 ± 0.15
9,FHGHQPYFWNVL,0.326 ± 0.54
10,YKWVVPDWSWVLEMALSLPT,0.346 ± 0.5
11,LSFFSLSIQSCMHGSLKIDS,-0.294 ± 1.1
12,TCNSSGPMMRCLIHWETRHR,5.17 ± 0.093
13,LKYDSKPSRVWMEICLYDAR,7.192 ± 0.054
14,SCIDCLRLSLLSGCIHWVNY,0.509 ± 0.8
15,DQCELVSGVWLSIRSADLPY,0.176 ± 0.35
16,AFPNNFTRLYALEVLFGFRN,2.1 ± 0.21
17,KLMFRHV,5.01 ± 0.081
18,VMPIFNYWV,0.121 ± 0.3
19,RLRMSMIISLINLRLCGLML,1.03 ± 0.53
20,TCIDEGEVVLDFFNVIKVLC,inactive
21,HRVFNEGASMGTCCSILLEM,6.047 ± 0.042
22,IPASDRYKVFRLWHQFRLVG,-0.001 ± 0.56
23,RFILLFTCGKGFFMHTCSRG,3.86 ± 0.11
24,AWGHIHAVPMYNALLYNSHD,0.695 ± 0.66
25,FVSGDHGTVWYIT,-0.036 ± 0.48

row,Substance,amyloid nucleation score
1,FLMISWSLWGFFLY,inactive
2,CNVASFELVLRD,inactive
3,FGIFVNRLCFSIDSYAGNGK,6.605 ± 0.037
4,DHRRCDSMRTDC,0.098 ± 1
5,TYLDGAYLLFDSARFAKAVK,0.144 ± 0.24
6,WVVVDNHLS,-0.234 ± 0.65
7,VVDTGFQRTGKSWIINDRGM,0.253 ± 0.14
8,YIVCYAVSGLVWSIGSHEGM,1.86 ± 0.13
9,RTVLFAGCAVSNEMFCEKLV,3.68 ± 0.077
10,DKRIGRVCHSLKIVWCTIML,-0.089 ± 0.41
11,LYNEMVRSLVGAICRSRQGY,-0.297 ± 1.1
12,IRFNAYLRDEDYSKIREVLG,-1.41 ± 0.54
13,YERMWCHLLVLRPNKQK,0.697 ± 0.81
14,VVHQVSVGHCWVSR,0.683 ± 0.21
15,LLSPYMLRLMV,-0.299 ± 0.79
16,AFWVLTVPLGSWYCACYCYS,-0.662 ± 0.39
17,PLDPHCVFPIDNTSMMRVV,0.295 ± 0.32
18,NEYMYVR,0.969 ± 0.52
19,EGICFLLMDCSCNNCFLALA,4.66 ± 0.055
20,FYGVNVRIRCKH,0.486 ± 0.66
21,MVWAQSTASMVLDLVFIAPS,1.75 ± 0.29
22,QVYLS,-1.17 ± 0.62
23,SHNFRISYKSCVLNSCMKRL,inactive
24,LRSWEGLSQAWRPCCVILHN,0.48 ± 0.34
25,SIDYD,-0.627 ± 0.76

row,Substance,amyloid nucleation score
1,RLLRQGDFGVTENRFLFRDI,-0.502 ± 0.79
2,RFGGSVYARGERL,-0.159 ± 0.46
3,WRALPKYGYCLSLGVYEETR,-0.102 ± 0.55
4,VPNFRS,4.16 ± 0.037
5,VMHFDLQICDRVHSRKSAPR,8.523 ± 0.038
6,SFCYLLSTISVTIALVKTRG,-0.271 ± 0.5
7,CRIFDTVSMLNSFYHGH,inactive
8,FLDKCVRSSIENYWV,-0.074 ± 1.1
9,GCYLVNDASPVSHLVFLPM,inactive
10,KKDSSWFRLNDKKVVSSHKR,-0.215 ± 0.2
11,KDGEVAAMPGRGVHQVMGEK,0.325 ± 0.49
12,FEIGSV,inactive
13,TICVSSVRRTGKGSWVRDWA,0.356 ± 0.5
14,TYVSKIWMKRCESDILRKVI,inactive
15,KMTYP,2.14 ± 0.13
16,GLLVSGMINWYRVFIRNILL,-0.606 ± 0.38
17,DFVRY,-0.484 ± 0.63
18,KGGAARSVWISMCFFKAFYR,-0.358 ± 1
19,NLSNELSCI,inactive
20,YWGSFGDKLKLLNMCPLSLD,inactive
21,IFAGIHWNGQSAFLVFKCHI,inactive
22,SCNRRSSVVPWWWLTFRRWN,-1.16 ± 1.1
23,SLYVGFNRFFIRPVCCEVRG,-0.608 ± 1.1
24,SYDIFWILWLASCMLILYII,2.92 ± 0.099
25,YFNSLTQISSFRKFSRPLHS,0.033 ± 0.38

row,Substance,amyloid nucleation score
1,SGNHSLVLYDWDYVWYVTQY,-1.1 ± 0.45
2,FVLSMVLSIILLSLSHHLFG,2.33 ± 0.2
3,VKAVMWIDLVNRVIMNGHIS,-0.461 ± 0.49
4,VSKLNLLNIHCAKPFLLEL,3.38 ± 0.13
5,YLRVKMPVIRVIVR,inactive
6,FSLFCPWRKWLLDEVFM,0.5 ± 0.27
7,HLWFLCRSYGGVLKFHTESV,1.03 ± 0.43
8,YSNSPCVIYNMKGRGSLLSH,-1.6 ± 0.64
9,YHYGNGVAWDMTRKPRHHFV,-0.243 ± 0.41
10,FRLTIDNFDVNGLLSEMAYG,-0.293 ± 0.38
11,ALGHIQLKLHCWDYGKRCAS,0.623 ± 0.25
12,LTLHAVWI,-0.022 ± 0.27
13,SSCRGIEWRFQTGNITQWLG,-0.165 ± 0.23
14,VIKCLVPSLIKSFRRHWFNT,-0.708 ± 0.79
15,HIIISKYHINYCRMMNYSGK,8.137 ± 0.056
16,HKCGTPFAIHIYRSKQLPGV,-0.305 ± 1
17,SSCGYLKTTFSKLSEAHCYR,-1.45 ± 1.1
18,IRVFSDGAFKTEFTTKATLL,0.328 ± 0.65
19,MCWIVTFTRLCWLMFNSERC,inactive
20,VDLGLLKKTNFTQLYFGDC,0.317 ± 0.16
21,GLSLLRGTNSGSAARLGANG,0.452 ± 0.32
22,FLSYLN,-0.322 ± 0.5
23,VNRIASKWVYLLMNEFYSI,-1.21 ± 0.61
24,GACGVSEVMHRVVFRGRLKR,0.4 ± 0.39
25,HCTWSQPPSS,-0.001 ± 0.5

row,Substance,amyloid nucleation score
1,YESHLCVFTCWTFRFLNVMD,-1.01 ± 1.1
2,FVRSIDNSAYLLWVSLYPCM,-0.364 ± 0.79
3,FGKNYNFCNV,-0.184 ± 0.63
4,GLRELS,-0.874 ± 0.55
5,RNSCFVLSFMGWFVHYHFRF,-0.317 ± 0.79
6,TFVLSNC,-0.356 ± 0.65
7,NRRYLKPSGPEEGWMMLSGT,1.03 ± 0.35
8,TTICVFNVGESHMRLSGSVG,-0.053 ± 0.28
9,NRTAFPCFLA,-0.473 ± 0.49
10,FVFLVYYFSEFIH,inactive
11,VGSVICMFMCWFA,4.75 ± 0.036
12,PFVTFATVFLLKPMVFAKQC,1.23 ± 0.38
13,ITINSMSPRLPIRLRVVWKG,inactive
14,RGALALLVRDAMFFCSLSGF,4.41 ± 0.1
15,VFSNDASDNTRGRWLGYGFF,inactive
16,CRMYRSRCNCMCDRVVEMWG,-0.407 ± 0.4
17,ILAYPFRCIETNSLLKMSPL,0.402 ± 0.8
18,YLFDLVFILEQYFWL,2.85 ± 0.049
19,EDAFMSFCMVRLWDHF,-0.089 ± 1.1
20,RMYLVGMLMHSLLEEMSKTA,4.76 ± 0.083
